# Laboratory results from paper PMC7496394.
# Like-named read-outs stand apart in the source and are kept apart here.
# T1: rMDA1 (mature MDA1) (Arabidopsis thaliana, UniProt F4JVI3 44-493)
# T1 sequence: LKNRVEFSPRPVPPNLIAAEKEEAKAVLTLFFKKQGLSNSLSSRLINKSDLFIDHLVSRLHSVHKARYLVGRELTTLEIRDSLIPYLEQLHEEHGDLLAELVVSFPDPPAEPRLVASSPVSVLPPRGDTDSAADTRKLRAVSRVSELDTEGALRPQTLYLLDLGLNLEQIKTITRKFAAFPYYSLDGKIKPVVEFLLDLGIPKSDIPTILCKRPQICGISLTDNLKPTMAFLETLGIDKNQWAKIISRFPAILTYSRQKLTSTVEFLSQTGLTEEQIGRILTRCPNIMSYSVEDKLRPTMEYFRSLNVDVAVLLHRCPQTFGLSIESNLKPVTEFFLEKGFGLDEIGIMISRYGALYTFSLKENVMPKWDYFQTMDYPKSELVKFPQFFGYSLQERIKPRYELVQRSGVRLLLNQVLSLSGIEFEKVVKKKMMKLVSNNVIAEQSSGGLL
# B1: psbE E5 (dsDNA)
# DNA 1: TTAATTTACTTATTCATCTTTTACAGA
# DNA 2: TCTGTAAAAGATGAATAAGTAAATTAA
# B2: dsRNA random probe (dsRNA)
# RNA 1: GAUAUGCGCGAAUUCCUGUAGAACGAACACUAGAAGAAA
# RNA 2: UUUCUUCUAGUGUUCGUUCUACAGGAAUUCGCGCAUAUC
# B3: ndhA A10 (dsDNA)
# DNA 1: TATTGGGAATCATAACAGGTGTACTAG
# DNA 2: CTAGTACACCTGTTATGATTCCCAATA
# B4: dsDNA random probe (dsDNA)
# DNA 1: GATATGCGCGAATTCCTGTAGAACGAACACTAGAAGAAA
# DNA 2: TTTCTTCTAGTGTTCGTTCTACAGGAATTCGCGCATATC
# B5: psbE E4 (dsDNA)
# DNA 1: ATTGACGATCTCACAAAGATGCAATCT
# DNA 2: AGATTGCATCTTTGTGAGATCGTCAAT
# Tests used:
# [1] = biological target: recombinant and mature MDA1 (Arabidopsis thaliana) (UniProt F4JVI3); test: SEC
# rMDA1 (mature MDA1) [2] = biological target: T1, rMDA1 (mature MDA1); test: EMSA
# rMDA1 (mature MDA1) [3] = biological target: T1, rMDA1 (mature MDA1); test: EMSA; remark: listed apart in the source
# rMDA1 (mature MDA1) [4] = biological target: T1, rMDA1 (mature MDA1); test: EMSA; remark: listed apart in the source
# rMDA1 (mature MDA1) [5] = biological target: T1, rMDA1 (mature MDA1); test: EMSA; remark: listed apart in the source
# rMDA1 (mature MDA1) [6] = biological target: T1, rMDA1 (mature MDA1); test: EMSA; remark: listed apart in the source
molecule,measurement,setting,value
recombinant and mature MDA1 (from UniProt F4JVI3 130-493) (domain or fragment),stoichiometry N,[1],2
GUAGACUCUAAAAAUACCCUUGGUACUUU (ssRNA) [5' psbE sRNA],binding result,rMDA1 (mature MDA1) [2],no binding
B1,binding result,rMDA1 (mature MDA1) [3],no binding
GUUUUAAACAAGAGACAGAAACAAAGA (ssRNA) [3' ndhA sRNA],binding result,rMDA1 (mature MDA1) [2],no binding
UCUGAUUCGAGGGGGUCCCGUUGAAC (ssRNA) [3' psbJ sRNA],binding result,rMDA1 (mature MDA1) [2],no binding
GAUAUGCGCGAAUUCCUGUAGAACGAACACUAGAAGAAA (ssRNA) [ssRNA random probe],binding result,rMDA1 (mature MDA1) [4],binds
B2,binding result,rMDA1 (mature MDA1) [5],no binding
B3,binding result,rMDA1 (mature MDA1) [3],binds
UGGCUGAUAUUAUGACGAUAC (ssRNA) [5' ndhA sRNA],binding result,rMDA1 (mature MDA1) [2],no binding
GATATGCGCGAATTCCTGTAGAACGAACACTAGAAGAAA (ssDNA) [ssDNA random probe],binding result,rMDA1 (mature MDA1) [5],no binding
B4,binding result,rMDA1 (mature MDA1) [6],binds
B5,binding result,rMDA1 (mature MDA1) [3],binds
